Assay results: patent US20150359849A1, “METHODS OF INCREASING NEURONAL CONNECTIVITY AND/OR TREATING A NEURODEGENERATIVE CONDITION” (PRESIDENT AND FELLOWS OF HARVARD COLLEGE, priority 2013, published 2015)

B1: OSTN: recombinant human osteocrin protein; a secreted protein produced by cells of the osteoblast lineage (protein, listed as Homo sapiens)
chain: MLDWRLASAHFILAVTLTLWSSGKVLSVDVTTTEAFDSGVIDVQSTPTVREEKSATDLTAKLLLLDELVSLENDVIETKKKRSFSGFGSPLDRLSAGSVDHKGKQRKVVDHPKRRFGIPMDRIGRNRLSNSRG
B2: BDNF: a neuronal activity-regulated secreted factor (protein, UniProt P23560 19-247, looked up)
Neurotrophic factor BDNF …: APMKEANIRGQGGLAYPGVRTHGTLESVNGPKAGSRGLTSLADTFEHVIEELLDEDQKVRPNEENNKDADLYTSRVMLSSQVPLEPPLLFLLEEYKNYLDAANMSMRVRRHSDPARRGELSVCDSISEWVTAADKKTAVDMSGGTVTVLEKVPVSKGQLKQYFYETKCNPMGYTKEGCRGIDKRHWNSQCRTTQSYVRALTMDSKKRIGWRFIRIDTSCVCTLTIKRGR

How the values were obtained:
Type in all cases: cell-based
human neurons = assay: neuronal survival assay: number of MAP2 positive cells; details: about 80,000 to about 130,000 cells/cm^2, where neighboring neurons could provide trophic support
Experimental: FIGS. 4A-4C are experimental data showing that osteocrin promotes human neuronal survival. FIGS. 4A-4B are fluorescent images showing culture of primary human neurons with or without recombinant OSTN. In FIGS. 4A-4B, primary human neurons were cultured for 10 days in vitro with and without recombinant OSTN (˜50 ng/ml), fixed and immunostained with neuronal marker MAP2 and nuclear marker DAPI. FIG. 4C is a quantitative bar graph showing the number of MAP2 positive neurons per measured area at DIV10 in human neuronal cultures with or without recombinant OSTN. The data are represented as mean±SEM. As used herein throughout the specification, the abbreviation “DIV” stands for Day In Vitro, i.e., the number of days neurons have grown in culture.
As presented herein, the inventors discovered OSTN as a human-specific activity-regulated secreted molecule. […] Neurons were grown, e.g., at a density of about 40,000 cells/cm^2, in the presence or absence of OSTN (e.g., ˜50 ng/ml) for a period of time, e.g., about 6 days between DIV4 to DIV10. After the period of time (e.g., about 6 days), samples were fixed and stained for dendritic and/or nuclear markers (FIGS. 4A-4B). Neuronal survival was assayed, for example, by quantifying the number of MAP2 positive cells after the neurons were cultured with or without OSTN for a pre-determined period of time (e.g., detected at DIV10). […]

[1] = tested on: human primary neuronal cultures; assay: neuronal connectivity assay: human primary neuronal cultures fixed and stained for dendritic and synaptic markers
Experimental: FIGS. 3A-3E are experimental data showing that osteocrin promotes human neuronal connectivity. FIGS. 3A-3D are fluorescent images of primary human neurons fixed and immunostained with neuronal and synaptic markers, e.g., microtubule-associated protein 2 (MAP2), postsynaptic density protein-95 (PSD95) and synapsin after cultured for about 10 days in vitro with and without recombinant OSTN (˜50 ng/mL). […] FIG. 3E is a bar graph showing quantification results of excitatory synapse number in human neuronal cultures with increasing concentrations (˜0.5-˜50 ng/mL) of recombinant OSTN. In particular, the human neuronal cultures were treated with recombinant OSTN at a concentration of ˜0.5 ng/mL, ˜5 ng/mL, or ˜50 ng/mL. The data are represented as mean±SEM from n=5.
No role has previously been described for OSTN in nervous system development or particularly human nervous system development; however, OSTN has been reported to be secreted from bone-forming cells to promote the proliferation of bone precursors. In order to assess the roles of OSTN in human neuronal function, human primary neuronal cultures were treated with increasing concentrations of an osteocrin-inducing agent, e.g., but not limited to, a recombinant human OSTN protein. After about 6 days, samples were fixed and stained for neuronal markers, e.g., dendritic and/or synaptic markers, to examine effects on neuronal connectivity (FIGS. 3A-3D). Neuronal excitatory synaptic connections can be assayed by any methods known in the art, e.g., by quantifying the density of closely apposed puncta labeling pre- and post-synaptic markers along neuronal dendrites.

primary human neurons = assay: human axonal growth assay in microfluidic chambers
Experimental: FIGS. 5A-5G are experimental data showing that osteocrin promotes human axonal growth. FIG. 5A is a schematic diagram of microfluidic chambers, e.g., for use in a human axonal growth assay. The bracket denotes the area where images were approximately acquired. In FIGS. 5B-5E, primary human neurons were cultured for 21 days in vitro in the microfluidic chamber with (FIG. 5C and FIG. 5E) and without (FIG. 5B and FIG. 5D) recombinant OSTN (˜100 ng/ml). FIGS. 5B-5C are brightfield images of axons imaged live by a bright-field microscope. FIGS. 5D-5E are fluorescent images of axons fixed and immunostained with axonal marker Neurofilament (NF). FIG. 5F is a quantitative bar graph showing axonal length extension of OSTN-treated neurons, normalized to the control experiment. FIG. 5G is a quantitative bar graph showing the number of MAP2-positive neurons per measured area inside the chamber. The data are represented as mean±SEM.
To assess the effect of OSTN on axonal outgrowth, a human axonal growth assay was developed by using microfluidic chambers (e.g., obtained from Xona Microfluidics, Temecula, Calif.) (FIG. 5A). In this assay, primary human neurons were seeded in the presence or absence of OSTN into the microfluidic chambers and cultured for a sufficient period of time to allow their axons grow through microchannels that were designed to be small enough to only allow axons, not dendrites, to pass through. For example, after about 21 days, axons were imaged both live (FIGS. 5B-5C) and after stained with an axonal marker, e.g., an anti-neurofilament antibody (FIGS. 5D-5E). Human axons grew slowly in the absence of OSTN and at DIV21 only few axonal processes were visible (FIGS. 5B and 5D). […] These findings shown that human-specific activity-regulated factor OSTN is a regulator of the axonal growth in human neurons.

osteocrin expression = assay: induction of osteocrin expression in human cultures; details: addition to human cultures
[2] = recombinant OSTN ~50 ng/mL, about 10 days in vitro

Molecule	significant increase in neuronal survival at standard or higher densities (human neurons)	dendritic density following OSTN treatment ([1]; data not shown)	total dendritic length following OSTN treatment ([1]; data not shown)	expression of PSD95 and synapsin (immunostaining) compared to control neurons [1, 2]	network of microtubules (MAP2 immunostaining) compared to control neurons [1, 2]	increase in excitatory synapse density as compared to mock-treated controls ([1]; recombinant human OSTN protein, increasing concentrations (~0.5-~50 ng/mL), after about 6 days, closely apposed pre- and post-synaptic puncta along dendrites)	number of neuronal cells (MAP2-positive) in the chambers with OSTN treatment (primary human neurons; recombinant OSTN ~100 ng/ml, DIV21)	axonal growth in the presence of OSTN (primary human neurons; recombinant OSTN ~100 ng/ml, about 21 days in vitro, imaged live and neurofilament stained)	increase in axonal growth of human neurons as compared to neural cells without treatment of OSTN (primary human neurons; summary statement in the description)	effect on induction of osteocrin expression (osteocrin expression)
B1	not observed	Increases were also observed	Increases were also observed	expressed higher levels of PSD95 and synapsins	formed a denser network of microtubules	at least 3 fold	did not appear to change	neurons grow axons of dramatic lengths and complexities	at least 2 fold	–
B2	–	–	–	–	–	–	–	–	–	does not have any significant effect
